pIC50: −log10 of the molar value. Bounds are passed on as bounds.

Holding throughout (experiment): IEDB peptide-MHC binding, purified MHC/competitive/radioactivity; ≥ and ≤ were set here for values at or beyond the usual limits of such assays
Common to all, as to conditions: source organism: Bordetella pertussis

Test [1] concerns the target HLA-B*44:03.
Test [2] has as its target HLA-B*53:01.
For test [3], the target named is HLA-A*02:01.
Test [4] deals with HLA-B*07:02.
The target in test [5] is HLA-B*57:01.

In the case of ANEANALLW, the negative-log IC50 (pIC50) in test [1] is 5.04.
Consider EVDGIIQEF, for which the negative logarithm of the IC50 (pIC50) in test [1] is 4.80.
With FDTMLGFAI, in test [2], the negative logarithm of the IC50 (pIC50) is 5.54.
For FTHADGWFL, the negative-log IC50 (pIC50) in test [3] is 4.85.
Take ILPILVLAL: the negative logarithm of the IC50 (pIC50) in test [3] was 7.60.
For LSDAGHEHD, in test [2], the pIC50 was 4.44.
NPQTQLSNI: in test [2], the negative logarithm of the IC50 (pIC50) was 4.63.
For the sequence PGTFTAGKD, the pIC50 in test [3] was 4.20.
For PGTPGDLLE, the pIC50 in test [2] is at most 4.11.
As to PPRPVVAEK, in test [4], the negative-log IC50 (pIC50) is 4.16.
Regarding SSTPLGSLF, the negative logarithm of the IC50 (pIC50) in test [5] was at most 4.15.
For the sequence VEASAITTY, the pIC50 in test [1] was 5.71.
As to YEDATFETY, the pIC50 in test [1] is 5.43.

Values taken from the Immune Epitope Database (IEDB).
